Assay results from FireProtDB.
Several values for one entry are separate records, joined by “and”; a condition that tells them apart may be missing. Equal values may be shown once.

Settings: whole UniProt chain shown
[1] = Fusarium vanettenii, pH 9, Thermal, DSC, Tris 10 mM, NaCl 40 mM, reversible: no
[2] = Escherichia coli, pH 5, 23 °C, Urea, DSC, Acetic acid/MES/Tris 50 mM/50 mM/100 mM/, reversible: yes
[3] = Escherichia coli, pH 8, Thermal, DSC, Tris/MES/Acetic acid 100 mM/50 mM/50 mM/, reversible: yes
[4] = Geobacillus stearothermophilus, pH 5.4, 25 °C, Thermal, CD, acetate 20 mM, NaCl 100 mM, reversible: yes
[5] = Geobacillus stearothermophilus, pH 5.4, 25 °C, Urea, CD, acetate 20 mM, NaCl 100 mM, reversible: yes
[6] = Geobacillus stearothermophilus, pH 5.4, 25.15 °C, Urea, CD, sodium acetate 10 mM, Nacl 100 mM
[7] = Geobacillus stearothermophilus, pH 5.4, Thermal, CD, acetate 20 mM, NaCl 100 mM, reversible: yes
[8] = Geobacillus stearothermophilus, pH 5.45, 10 °C, GdnHCl, CD, sodium acetate,sodium sulfate
[9] = Geobacillus stearothermophilus, pH 5.45, 25 °C, Urea, CD, Sodium phosphate 20 mM, NaCl 100 mM, reversible: Yes
[10] = Geobacillus stearothermophilus, pH 5.45, 25 °C, Urea, CD, sodium phosphate 10 mM, NaCl 100 mM, reversible: Yes
[11] = Geobacillus stearothermophilus, pH 5.45, 25 °C, Urea, CD, sodium phosphate 20 mM, sodium chloride 100 mM, reversible: yes
[12] = Geobacillus stearothermophilus, pH 5.45, 25 °C, Urea, Fluorescence, Sodium phosphate 20 mM, NaCl 100 mM, reversible: Yes
[13] = Geobacillus stearothermophilus, pH 5.5, 25 °C, Urea, CD, NaAc 20 mM, NaCl 100 mM
[14] = Geobacillus stearothermophilus, pH 5.5, 25 °C, Urea, CD, Sodium phosphate 20 mM, NaCl 100 mM
[15] = Geobacillus stearothermophilus, pH 8, 25 °C, GdnHCl, CD, Tris-HCl 20 mM, sodium chloride 100 mM, reversible: yes
[16] = Geobacillus stearothermophilus, pH 8, 25 °C, Urea, CD, Sodium phosphate 20 mM, NaCl 100 mM, reversible: Yes
[17] = Geobacillus stearothermophilus, pH 8, 25 °C, Urea, CD, sodium phosphate 20 mM, sodium chloride 100 mM, reversible: yes
[18] = Geobacillus stearothermophilus, pH 8, 25 °C, Urea, Fluorescence, Sodium phosphate 20 mM, NaCl 100 mM, reversible: Yes

B1: Cutinase 1 wild type, P00590 (protein)
chain: MKFFALTTLLAATASALPTSNPAQELEARQLGRTTRDDLINGNSASCRDVIFIYARGSTETGNLGTLGPSIASNLESAFGKDGVWIQGVGGAYRATLGDNALPRGTSSAAIREMLGLFQQANTKCPDATLIAGGYSQGAALAAASIEDLDSAIRDKIAGTVLFGYTKNLQNRGRIPNYPADRTKVFCNTGDLVCTGSLIVAAPHLAYGPDARGPAPEFLIEKVRAVRGSA
- Tm (Fusarium vanettenii, pH 4.5, Thermal, Fluorescence, Sodium acetate 25 mM, reversible: Yes): 75 °C
- unfolding enthalpy (calorimetric) [1]: 104 kcal/mol and 92.3 kcal/mol
- unfolding enthalpy (van 't Hoff) [1]: 212 kcal/mol and 122 kcal/mol

B2: Dihydrofolate reductase type 2 wild type, P00383 (protein)
chain: MERSSNEVSNPVAGNFVFPSNATFGMGDRVRKKSGAAWQGQIVGWYCTNLTPEGYAVESEAHPGSVQIYPVAALERIN
- denaturant m value [2]: 1.46 kcal/mol/M
- denaturant midpoint (higher = more stable) [2]: 3.63 M
- unfolding free energy [2]: 13.3 kcal/mol
- unfolding free energy (Escherichia coli, pH 5, 30 °C, GdnHCl, CD, Acetic acid/MES/Tris 50 mM/50 mM/100 mM/, reversible: yes): 15.5 kcal/mol
- unfolding free energy (Escherichia coli, pH 5, 30 °C, GdnHCl, Fluorescence, Acetic acid/MES/Tris 50 mM/50 mM/100 mM/, reversible: yes): 13.5 kcal/mol
- unfolding free energy (Escherichia coli, pH 8, 30 °C, GdnHCl, CD, Tris/MES/Acetic acid 100 mM/50 mM/50 mM/, reversible: yes): 9.63 kcal/mol
- Tm [3]: 71 °C
- unfolding enthalpy (calorimetric) [3]: 307 kcal/mol

B3: Large ribosomal subunit protein bL9 wild type, P02417 (protein)
chain: MKVIFLKDVKGKGKKGEIKNVADGYANNFLFKQGLAIEATPANLKALEAQKQKEQRQAAEELANAKKLKEQLEKLTVTIPAKAGEGGRLFGSITSKQIAESLQAQHGLKLDKRKIELADAIRALGYTNVPVKLHPEVTATLKVHVTEQK
- unfolding free energy (Geobacillus stearothermophilus, pH 5.4, 25 °C, GdnHCl, CD, phosphate 10 mM, NaCl 100 mM, reversible: yes): 2.1 kcal/mol
- heat capacity change of unfolding [4]: 0.38 kcal/mol/K
- unfolding free energy [4]: 2.18 kcal/mol
- denaturant m value [5]: 0.48 kcal/mol/M
- denaturant midpoint (higher = more stable) [5]: 3.96 M
- unfolding free energy [5]: 1.9 kcal/mol
- denaturant m value [6]: 0.66 kcal/mol/M
- denaturant midpoint (higher = more stable) [6]: 6.5 M
- unfolding free energy [6]: 4.3 kcal/mol
- Tm [7]: 65.3 °C
- heat capacity change of unfolding [7]: 0.38 kcal/mol/K
- unfolding enthalpy (van 't Hoff) [7]: 26.3 kcal/mol
- denaturant m value [8]: 1.52 kcal/mol/M
- unfolding free energy [8]: 6.02 kcal/mol
- unfolding free energy (Geobacillus stearothermophilus, pH 5.45, 25 °C, Thermal, CD, Sodium phosphate 20 mM, NaCl 100 mM, reversible: Yes (>90%)): 3.82 kcal/mol
- denaturant m value [9]: 1.32 kcal/mol/M
- unfolding free energy [9]: 3.32 kcal/mol
- denaturant m value [10]: 0.66 kcal/mol/M
- unfolding free energy [10]: 4.17 kcal/mol
- denaturant m value [11]: 1.21 kcal/mol/M
- unfolding free energy [11]: 3.91 kcal/mol
- denaturant m value [12]: 1.24 kcal/mol/M
- unfolding free energy [12]: 3.84 kcal/mol
- denaturant m value [13]: 0.66 kcal/mol/M
- unfolding free energy [13]: 4.3 kcal/mol and 5.85 kcal/mol
- denaturant m value [14]: 0.66 kcal/mol/M
- unfolding free energy [14]: 4.3 kcal/mol
- Tm (Geobacillus stearothermophilus, pH 7.4, Thermal, CD, Tris 10 mM, NaCl 100 mM, reversible: yes(95-100%)): 77 °C
- denaturant m value [15]: 2.24 kcal/mol/M
- unfolding free energy [15]: 5.9 kcal/mol
- denaturant m value [16]: 1.02 kcal/mol/M
- unfolding free energy [16]: 6.45 kcal/mol
- denaturant m value [17]: 1.02 kcal/mol/M
- unfolding free energy [17]: 6.38 kcal/mol
- denaturant m value [18]: 1.05 kcal/mol/M
- unfolding free energy [18]: 6.49 kcal/mol
- unfolding free energy (Geobacillus stearothermophilus, pH 8, Thermal, CD, Sodium phosphate 20 mM, NaCl 100 mM, reversible: Yes (>90%)): 5.77 kcal/mol
